Literature values in publication PMC8226686.

Biological target: insulin receptor (Homo sapiens) (UniProt P06213)
Sequence of UniProt P06213 (P06213 763-1382): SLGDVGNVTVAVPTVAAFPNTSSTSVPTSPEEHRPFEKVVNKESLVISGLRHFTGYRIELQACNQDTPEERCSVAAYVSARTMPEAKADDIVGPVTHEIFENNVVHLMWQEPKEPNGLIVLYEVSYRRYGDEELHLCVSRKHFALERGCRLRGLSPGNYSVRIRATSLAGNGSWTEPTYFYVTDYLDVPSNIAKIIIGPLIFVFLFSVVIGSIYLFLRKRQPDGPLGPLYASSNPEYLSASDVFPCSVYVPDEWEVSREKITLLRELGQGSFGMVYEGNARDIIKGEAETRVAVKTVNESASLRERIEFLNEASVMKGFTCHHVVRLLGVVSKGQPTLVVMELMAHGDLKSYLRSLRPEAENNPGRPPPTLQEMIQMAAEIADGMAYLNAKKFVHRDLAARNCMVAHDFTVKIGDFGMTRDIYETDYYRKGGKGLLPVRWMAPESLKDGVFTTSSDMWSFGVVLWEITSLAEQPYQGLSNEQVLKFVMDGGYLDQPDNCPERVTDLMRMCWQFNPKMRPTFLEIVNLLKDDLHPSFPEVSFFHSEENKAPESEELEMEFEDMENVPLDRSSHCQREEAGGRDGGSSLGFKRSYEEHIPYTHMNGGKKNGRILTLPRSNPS

Sequence of insulin (P01308 90-110): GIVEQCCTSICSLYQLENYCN

insulin (from UniProt P01308)
Kd: 2.2 nM
